Results reported in the supplement of paper PMC9112550, “Optimization of the antimicrobial peptide Bac7 by deep mutational scanning” (BMC Biology, 2022).

Test system: Escherichia coli TOP10
Assay: shrunken log2 fold change of peptide-encoding DNA abundance (4.5 h post-induction vs induction); higher = less antimicrobial activity (less host growth inhibition)
Details: time post-induction: 4.5 h; library: site-saturation at positions 5, 18, 19, 20
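Also: peptides expressed intracellularly from a pBAD plasmid library in pooled LB shake-flask culture, induced with 0.3% L-arabinose, DNA abundance read by NGS, three biological replicates, DESeq2 with apeglm shrinkage.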

Sequence	shrunken log2 fold change
RRIRQRPPRLPRPRPRPSKVPRP	-0.133
RRIRQRPPRLPRPRPRPSMEPRP	0.0775
RRIRQRPPRLPRPRPRPSMHPRP	-0.0647
RRIRQRPPRLPRPRPRPSNQPRP	-0.359
RRIRQRPPRLPRPRPRPSNSPRP	-0.294
RRIRQRPPRLPRPRPRPSNTPRP	-0.824
RRIRQRPPRLPRPRPRPSSWPRP	-0.0176
RRIRQRPPRLPRPRPRPSTQPRP	-0.481
RRIRQRPPRLPRPRPRPSVRPRP	-0.309
RRIRQRPPRLPRPRPRPSWGPRP	-0.0627
RRIRQRPPRLPRPRPRPSWYPRP	-0.0733
RRIRQRPPRLPRPRPRPSYSPRP	-0.298
RRIRQRPPRLPRPRPRPTAIPRP	-0.248
RRIRQRPPRLPRPRPRPTAWPRP	0.591
RRIRQRPPRLPRPRPRPTCEPRP	0.0552
RRIRQRPPRLPRPRPRPTEYPRP	-0.401
RRIRQRPPRLPRPRPRPTFGPRP	0.343
RRIRQRPPRLPRPRPRPTFSPRP	-0.0427
RRIRQRPPRLPRPRPRPTHDPRP	0.911
RRIRQRPPRLPRPRPRPTHNPRP	0.357
RRIRQRPPRLPRPRPRPTHPPRP	0.374
RRIRQRPPRLPRPRPRPTIDPRP	-0.0223
RRIRQRPPRLPRPRPRPTIPPRP	-0.205
RRIRQRPPRLPRPRPRPTMVPRP	-0.148
RRIRQRPPRLPRPRPRPTNSPRP	-0.225

Sequence	shrunken log2 fold change
RRIRQRPPRLPRPRPRPTPSPRP	0.507
RRIRQRPPRLPRPRPRPTQAPRP	0.186
RRIRQRPPRLPRPRPRPTRYPRP	0.511
RRIRQRPPRLPRPRPRPTSPPRP	0.218
RRIRQRPPRLPRPRPRPTVSPRP	-0.14
RRIRQRPPRLPRPRPRPTWQPRP	0.186
RRIRQRPPRLPRPRPRPTYQPRP	-0.109
RRIRQRPPRLPRPRPRPTYYPRP	-0.524
RRIRQRPPRLPRPRPRPVADPRP	0.0976
RRIRQRPPRLPRPRPRPVCIPRP	-0.39
RRIRQRPPRLPRPRPRPVEDPRP	-0.0933
RRIRQRPPRLPRPRPRPVEEPRP	-0.0284
RRIRQRPPRLPRPRPRPVEPPRP	0.117
RRIRQRPPRLPRPRPRPVFMPRP	-0.155
RRIRQRPPRLPRPRPRPVFQPRP	0.0308
RRIRQRPPRLPRPRPRPVFVPRP	-0.0727
RRIRQRPPRLPRPRPRPVGQPRP	0.0327
RRIRQRPPRLPRPRPRPVGSPRP	0.317
RRIRQRPPRLPRPRPRPVHLPRP	0.00299
RRIRQRPPRLPRPRPRPVICPRP	-0.0945
RRIRQRPPRLPRPRPRPVKMPRP	-0.211
RRIRQRPPRLPRPRPRPVLRPRP	-0.027
RRIRQRPPRLPRPRPRPVMEPRP	-0.028
RRIRQRPPRLPRPRPRPVMIPRP	-0.286
RRIRQRPPRLPRPRPRPVNWPRP	0.472

Sequence	shrunken log2 fold change
RRIRQRPPRLPRPRPRPVPIPRP	-0.0341
RRIRQRPPRLPRPRPRPVPKPRP	-0.00476
RRIRQRPPRLPRPRPRPVPRPRP	0.829
RRIRQRPPRLPRPRPRPVQAPRP	-0.0131
RRIRQRPPRLPRPRPRPVQGPRP	0.0162
RRIRQRPPRLPRPRPRPVQRPRP	0.862
RRIRQRPPRLPRPRPRPVRRPRP	-0.00994
RRIRQRPPRLPRPRPRPVSCPRP	0.0853
RRIRQRPPRLPRPRPRPVSSPRP	-0.255
RRIRQRPPRLPRPRPRPVSTPRP	-0.0279
RRIRQRPPRLPRPRPRPVVCPRP	3.57
RRIRQRPPRLPRPRPRPVVNPRP	-0.126
RRIRQRPPRLPRPRPRPVVSPRP	-0.179
RRIRQRPPRLPRPRPRPVYDPRP	-0.228
RRIRQRPPRLPRPRPRPWAKPRP	-0.000896
RRIRQRPPRLPRPRPRPWARPRP	-0.0405
RRIRQRPPRLPRPRPRPWCCPRP	0.0636
RRIRQRPPRLPRPRPRPWEKPRP	-0.0123
RRIRQRPPRLPRPRPRPWGKPRP	-0.103
RRIRQRPPRLPRPRPRPWGMPRP	-0.0405
RRIRQRPPRLPRPRPRPWHVPRP	-0.0656
RRIRQRPPRLPRPRPRPWMMPRP	0.0873
RRIRQRPPRLPRPRPRPWMRPRP	0.131
RRIRQRPPRLPRPRPRPWNMPRP	-0.086
RRIRQRPPRLPRPRPRPWPMPRP	-0.0342

Sequence	shrunken log2 fold change
RRIRQRPPRLPRPRPRPWPTPRP	0.00213
RRIRQRPPRLPRPRPRPWSWPRP	-0.0208
RRIRQRPPRLPRPRPRPWVNPRP	-0.215
RRIRQRPPRLPRPRPRPWVTPRP	-0.219
RRIRQRPPRLPRPRPRPWVVPRP	0.0305
RRIRQRPPRLPRPRPRPWWDPRP	0.00367
RRIRQRPPRLPRPRPRPWYTPRP	-0.132
RRIRQRPPRLPRPRPRPYAEPRP	-0.0595
RRIRQRPPRLPRPRPRPYAFPRP	-0.175
RRIRQRPPRLPRPRPRPYCEPRP	-0.327
RRIRQRPPRLPRPRPRPYCLPRP	-0.423
RRIRQRPPRLPRPRPRPYFRPRP	-0.368
RRIRQRPPRLPRPRPRPYHTPRP	-0.00448
RRIRQRPPRLPRPRPRPYIFPRP	-0.547
RRIRQRPPRLPRPRPRPYKMPRP	-0.292
RRIRQRPPRLPRPRPRPYKYPRP	-1.49
RRIRQRPPRLPRPRPRPYMFPRP	-0.392
RRIRQRPPRLPRPRPRPYMLPRP	-0.168
RRIRQRPPRLPRPRPRPYNVPRP	-0.0265
RRIRQRPPRLPRPRPRPYQCPRP	-0.263
RRIRQRPPRLPRPRPRPYQKPRP	-0.0335
RRIRQRPPRLPRPRPRPYQNPRP	-0.816
RRIRQRPPRLPRPRPRPYRRPRP	0.0231
RRIRQRPPRLPRPRPRPYSIPRP	0.098
RRIRQRPPRLPRPRPRPYTNPRP	-0.149

Sequence	shrunken log2 fold change
RRIRQRPPRLPRPRPRPYVCPRP	-0.0671
RRIRQRPPRLPRPRPRPYVFPRP	-0.648
RRIRQRPPRLPRPRPRPYVLPRP	-0.512
RRIRQRPPRLPRPRPRPYWIPRP	-0.152
RRIRRRPPRLPRPRPRPACFPRP	0.456
RRIRRRPPRLPRPRPRPACIPRP	0.542
RRIRRRPPRLPRPRPRPACMPRP	0.479
RRIRRRPPRLPRPRPRPADAPRP	0.249
RRIRRRPPRLPRPRPRPADGPRP	0.344
RRIRRRPPRLPRPRPRPADKPRP	-0.121
RRIRRRPPRLPRPRPRPADQPRP	0.0865
RRIRRRPPRLPRPRPRPAFKPRP	0.291
RRIRRRPPRLPRPRPRPAFPPRP	0.356
RRIRRRPPRLPRPRPRPAGTPRP	-0.0331
RRIRRRPPRLPRPRPRPAGVPRP	0.518
RRIRRRPPRLPRPRPRPAHVPRP	0.0907
RRIRRRPPRLPRPRPRPAIYPRP	-0.148
RRIRRRPPRLPRPRPRPAKLPRP	0.0542
RRIRRRPPRLPRPRPRPAKPPRP	0.125
RRIRRRPPRLPRPRPRPALIPRP	1.05
RRIRRRPPRLPRPRPRPALKPRP	0.366
RRIRRRPPRLPRPRPRPANTPRP	0.0917
RRIRRRPPRLPRPRPRPAPNPRP	0.976
RRIRRRPPRLPRPRPRPAQTPRP	0.348
RRIRRRPPRLPRPRPRPASEPRP	0.182

Sequence	shrunken log2 fold change
RRIRRRPPRLPRPRPRPASWPRP	0.337
RRIRRRPPRLPRPRPRPATRPRP	0.226
RRIRRRPPRLPRPRPRPAWLPRP	0.505
RRIRRRPPRLPRPRPRPCAKPRP	0.164
RRIRRRPPRLPRPRPRPCASPRP	0.0214
RRIRRRPPRLPRPRPRPCCQPRP	0.0136
RRIRRRPPRLPRPRPRPCDCPRP	0.00422
RRIRRRPPRLPRPRPRPCDEPRP	0.197
RRIRRRPPRLPRPRPRPCDTPRP	-0.092
RRIRRRPPRLPRPRPRPCEDPRP	0.0155
RRIRRRPPRLPRPRPRPCEQPRP	-0.0395
RRIRRRPPRLPRPRPRPCFSPRP	-0.14
RRIRRRPPRLPRPRPRPCGKPRP	0.254
RRIRRRPPRLPRPRPRPCGRPRP	-0.0337
RRIRRRPPRLPRPRPRPCHGPRP	-0.589
RRIRRRPPRLPRPRPRPCISPRP	-0.0399
RRIRRRPPRLPRPRPRPCKGPRP	0.0306
RRIRRRPPRLPRPRPRPCKVPRP	-0.0103
RRIRRRPPRLPRPRPRPCMGPRP	-0.1
RRIRRRPPRLPRPRPRPCMSPRP	-0.00622
RRIRRRPPRLPRPRPRPCNCPRP	-0.0759
RRIRRRPPRLPRPRPRPCNVPRP	0.0391
RRIRRRPPRLPRPRPRPCPPPRP	0.0965
RRIRRRPPRLPRPRPRPCQDPRP	-0.275
RRIRRRPPRLPRPRPRPCREPRP	0.0134
